pKd: −log10 of the molar value.
Target: properdin-bound C3b (human) (UniProt P27918)
Assay: ELISA, factor B titrated on C3b-coated plates with properdin

human factor B, sequence (P00751 other isoform, or with tags, fused parts or gaps limits assumed): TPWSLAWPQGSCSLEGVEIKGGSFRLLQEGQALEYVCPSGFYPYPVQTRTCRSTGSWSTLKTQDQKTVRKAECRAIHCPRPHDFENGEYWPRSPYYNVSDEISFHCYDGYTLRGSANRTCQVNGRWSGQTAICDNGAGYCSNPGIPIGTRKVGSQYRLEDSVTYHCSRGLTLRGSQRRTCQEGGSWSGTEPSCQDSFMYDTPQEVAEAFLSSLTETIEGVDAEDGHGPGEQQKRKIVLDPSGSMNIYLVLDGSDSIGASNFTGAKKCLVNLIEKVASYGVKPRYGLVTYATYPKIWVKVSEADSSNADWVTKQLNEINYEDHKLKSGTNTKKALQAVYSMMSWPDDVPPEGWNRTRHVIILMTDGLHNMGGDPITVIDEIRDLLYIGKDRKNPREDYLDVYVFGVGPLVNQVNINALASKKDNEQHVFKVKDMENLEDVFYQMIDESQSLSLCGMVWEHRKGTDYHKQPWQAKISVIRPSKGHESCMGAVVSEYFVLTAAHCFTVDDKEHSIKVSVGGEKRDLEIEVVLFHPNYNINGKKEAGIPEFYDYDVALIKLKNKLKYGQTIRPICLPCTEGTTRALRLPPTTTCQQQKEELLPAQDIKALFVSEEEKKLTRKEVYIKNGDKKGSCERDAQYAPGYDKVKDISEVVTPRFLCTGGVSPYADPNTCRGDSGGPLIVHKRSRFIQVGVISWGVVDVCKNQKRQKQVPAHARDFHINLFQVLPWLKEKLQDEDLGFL

- pKd: 8.95
Substance: human factor B (from UniProt P00751 26-764) (enzyme)
